Results on 1 molecule are retold here after patent US20220174981A1, “PROLINE TOLERANT TRIPEPTIDYL PEPTIDASES AND USES THEREOF” (DuPont Nutrition Biosciences APS, priority 2014, published 2022).

Data set [1] can be described thus: Stability of TRI045 in the presence of pepsin. It counts as biochemical, Swine. The following applies: 500 units pepsin/mL, pH3.5, 40° C., 60 min. The protocol: Pepsin solution: Swine pepsin from Sigma (P7000, 674 Sigma units/mg, www.sigma.com) was used in this example and prepared in MilliQ water at 10000 Sigma unit/ml at 10000 Sigma unit/mL
Pre-incubation mixture contained: 2.5 μl TRI045 sample, 95 μl GAT buffer (50 mM glycine-50 mM acetic acid-50 mM Tris, pH3.5), 5 μl pepsin in milliQ water (10000 Sigma unit/ml) (final pepsin unit concentration: 500 Sigma unit/ml reaction mixture) in a half bottom area 96 well Corning MTP. For control, the pre-incubation mixture contained 5 μl water instead of 5 μl pepsin. The mixture was incubated at 40° C. for 60 min and then kept on ice. For assaying the residual activity, the assay mixture contained the pre-incubation mixture 5 μl, 0.1M acetic acid-sodium acetate (pH4.0) 85 μl, 5 μl H-Ala-Ala-Phe-pNA (2.5 mg/ml) from BACHEM.com (L-1095.0250). The 410 nm reading was followed in a microplate reader every 0.5 min at 30° C. N=2.

Data set [2] deals with H-Ala-Ala-Phe-pNA. The data set is described as follows: Effect of pH on TRI045 activity with H-Ala-Ala-Phe-pNA. The class given is biochemical. Here is the method: The tripeptide substrate H-Ala-Ala-Phe-pNA (AAF-pNA from BACHEM.com, L-1095.0250) for sedolisin was prepared at 2.5 mg/ml in DMSO. The reaction was prepared by mixing 8.5 μl AAF-pNA, 7 μl DMSO, 32 μl water and 50 μl buffer with pH4.14-6.57, and 0.8 μl or 1.5 ul TRI045. The reaction was started at 30° C. by the addition of the enzyme TRI045. The initial reaction rate was recorded using a microplate reader at every 0.5 min interval at 410 nm in 96 well plate.

The test system of data set [3] is AAF-pNA. The data set can be described thus: Residual activity on AAF-pNA after in vitro digestion with pepsin and pancreatin. The class given is biochemical. The protocol:
In order to test the stability of TRI045 under the in vitro assay conditions described above (incubation in the presence of pepsin at pH3 for 45 min at 40° C. and subsequently in the presence of pancreatin for 60 min at 40° C.). The residual activity of TRI045 was subsequently assayed. The reaction mixture contained 50 μl buffer 0.1M HAC-NaAC (pH5.0), 10 μl the supernatant, and 5 μl AAF-pNA (5 mg/ml in DMSO). The reaction rate was followed at 410 nm and 30° C. every 30 seconds using a microplate reader. As a control, a commercial protease at the same concentration of 1000 ppm was used.

Data set [4] deals with corn soy feed. The data set can be described thus: TRI045 plus pepsin and pancreatin on corn soy feed, OPA and BCA assays. It counts as biochemical. The following applies: TRI045 1000 ppm, swine pepsin and pancreatin present. Here is the method: The in vitro reaction system contained 140 μl 10% (w/v) corn soy feed slurry (14 mg corn soy feed), 10 μl TRI045 in 50m M MES-NaOH pH 6.0, 10 μl swine pepsin (1.14 U/μL in water). The reaction was incubated with shaking at 40° C. for 45 min and subsequently 34 μl swine pancreatin (0.4636 mg/mL in 1M Na-bicarbonate) were added and further incubated for additional 60 min. After incubation, the 96-well plate was centrifuged and supernatants were used for residual TRI045 activity assay and for OPA and BCA assays (see below).
Reference: P. M. Nielsen, D. Petersen and C. Dambmann. Improved Method for Determining Food Protein Degree of Hydrolysis. Journal of Food Science. 66 (2001) 642-646.
For OPA assay the following procedure was carried out.
To quantify the protein concentrations of each protease samples, the Pierce BCA Protein Assay Reagent Kit (Thermo Scientific, cat no. 23228) was used. The TRI045 sample was not purified before quantification. The Pierce BCA Protein Assay Kit is a detergent-compatible formulation based on bicinchoninic acid (BCA) for colorimetric detection and quantification of total proteins. This method combines the well-known reduction of Cu^2+ to Cu^1+ by protein in an alkaline medium with the highly sensitive and selective colorimetric detection of the cuprous cat ion (Cu^+1) using a unique reagent containing bicinchoninic acid. […]

In data set [5] the test system is H-Ala-Ala-Ala-pNA. The data set can be described thus: Exopeptidase Broad-Specificity Assay (EBSA) with H-Ala-Ala-Ala-pNA; pH and temperature profile. The class given is biochemical. The settings on record: H-Ala-Ala-Ala-pNA; 20 mM Na-glycine pH 2.0-4.0 or Na-acetate pH 4.0-5.5. Here is the method: 10 μL of the chromogenic peptide solution (10 mM H-Ala-Ala-Ala-pNA dissolved in dimethyl sulfoxide (DMSO); MW=387.82; Bachem, Switzerland) were added to 130 μl Na-acetate (20 mM, adjusted to pH 4.0 with acetic acid) in a microtiter plate and heated for 5 minutes at 40° C. 10 μL of appropriately diluted enzyme was added and the absorption was measured in a MTP reader (Versa max, Molecular Devices, Denmark) at 405 nm. One katal of proteolytic activity was defined as the amount of enzyme required to release 1 mole of p-nitroaniline per second.
The chromogenic peptide H-Ala-Ala-Ala-pNA (MW=387.82; Bachem, Switzerland) was used to determine the activity of proline tolerant tripeptidyl peptidase in the samples produced as described above. The assay was conducted as follows, 10 μL of the chromogenic peptide solution (10 mM dissolved in dimethyl sulfoxide; DMSO) were added to 130 μl Na-acetate (20 mM, adjusted to pH 4.0 with acetic acid) in a microtiter plate and heated for 5 minutes at 40° C. 10 μL of appropriately diluted enzyme was added and the absorption was measured in an MTP reader (Versa max, Molecular Devices, Denmark) at 405 nm. One katal of proteolytic activity was defined as the amount of enzyme required to release 1 mole of p-nitroaniline per second.
The proline tolerant tripeptidyl peptidase assay described with H-Ala-Ala-Ala-pNA substrate above with modification of using the buffers 20 mM Na-glycine (pH 2.0, 2.5, 3.0, 3.5 and 4.0) or 20 mM Na-acetate buffer (pH 4.0, 4.5 and 5.5) was used to determine the pH profile of proline tolerant tripeptidyl peptidase TRI083 (FIG. 2) and TRI045 (FIG. 24)..
The proline tolerant tripeptidyl peptidase assay described above was used at temperatures 25, 50, 55, 60, 65, 70, 75, 80 and 85° C.
For proline tolerant tripeptidyl peptidase the chromogenic peptide H-Ala-Ala-Ala-pNA was used. The assay was conducted as follows, 27.5 μL of appropriately diluted enzyme was added to 200 μl McIlvaine buffer (20 mM, pH 4.0). After incubation at 50° C. for 5 min, 12.5 μL of the chromogenic peptide solution (5 mg/mL dissolved in dimethyl sulfoxide (DMSO); Sigma-Aldrich, Denmark) were added to the reaction mixture. The reaction was terminated by adding 50 μL of 0.5 M trichloroacetic acid (TCA; Sigma-Aldrich, Denmark). After centrifugation (15,000×g, 5 min), 240 μL of the solution were transferred to a microtiter plate (MTP; Kisker-biotech, Germany) and the absorption was measured in an MTP reader (Molecular Devices, Denmark) at 405 nm. One katal of proteolytic activity was defined as the amount of enzyme required to release 1 mol of p-nitroaniline per second.

B1: TRI045: tripeptidyl peptidase having pre-pro sequence SEQ ID No. 98 and mature protein SEQ ID No. 99 (protein, listed as Arthroderma benhamiae)
chain: CRSLVTTACLRELYGLGDRVTQARDDNRIGVSGFLEEYAQYRDLELFLSRFEPSAKGFNFSEGLIAGGKNTQGGPGSSTEANLDMQYVVGLSHKAKVTYYSTAGRGPLIPDLSQPSQASNNNEPYLEQLRYLVKLPKNQLPSVLTTSYGDTEQSLPASYTKATCDLFAQLGTMGVSVIFSSGDTGPGSSCQTNDGKNATRFNPIYPASCPFVTSIGGTVGTGPERAVSFSSGGFSDRFPRPQYQDNAVKDYLKILGNQWSGLFDPNGRAFPDIAAQGSNYAVYDKGRMTGVSGTSASAPAMAAIIAQLNDFRLAKGSPVLGFLNPWIYSKGFSGFTDIVDGGSRGCTGYDIYSGLKAKKVPYASWNATKGWDPVTGFGTPNFQALTKVLP
Take B1: the residual activity result in data set [1] is recorded as “over 90%”. For the same molecule, the “activity at around pH4 and pH6.5” value in data set [2] (AAF-pNA, 30° C.) was “around 50%”. For the same molecule, the “Relative activity with pH 5.01 as 100%” value stood at 59.4% in data set [2] (pH 4.1, 0.1M HAC-NaAC); 81.7% in data set [2] (pH 4.6, 0.1M HAC-NaAC); 100.0% in data set [2] (pH 5.0, 0.1M HAC-NaAC); 80.7% in data set [2] (pH 5.6, 0.1M HAC-NaAC); 72.2% in data set [2] (pH 6.0, 0.1M Mes-NaOH); 48.5% in data set [2] (pH 6.6, 0.1M Mes-NaOH). For the same molecule, in data set [3] (40° C.), the “time stable to pepsin and pancreatin” value is “at least 100 minutes”. Moreover, the reaction rate in data set [3] (1000 ppm, after pepsin 45 min and pancreatin 60 min at 40° C., control 4.3 mOD/min) was found to be 19.3 mOD/min. The “stability to pepsin and pancreatin in the presence of corn soy feed” value in data set [3] (105 min at 40° C., pH range of 3 to 7) was “stable to pepsin and pancreatin”. For the same molecule, in data set [3] (after subtraction of the control (4.3 mOD/min)), the “residual activity on AAF-pNA relative to the commercial protease” value is listed as 2.2 times. Further, the “increase of release of free amino groups from corn soy feed (OPA value)” value in data set [4] came out at 9%. In addition, in data set [4] (BCA), the “increase of protein solubility” value stood at 5%. The “Optimum pH” value in data set [5] was determined as 4.0.
